Reference: paper PMC12647877, “The SMC Hinge is a Selective Gate for Obstacle Bypass” (Nature Communications, 2025)
Values belong to the binder of their own block, whether it stands above or below them.

What was measured:
[1] = molecular target: the molecule itself; experiment: cross-linking; cysteine cross-linking with BMOE (1 mM, 45 s, quenched with DTT) of purified hinge/coiled coil constructs in 20 mM Tris-HCl, 50 mM NaCl; SDS-PAGE, and denaturing agarose gels of entrapped ssDNA circles
[2] = molecular target: T1, scSmc4(598-923) condensin hinge/coiled coil with V721C and M821C (S. cerevisiae, UniProt Q12267 598-923, V721C | M821C); experiment: cross-linking; cysteine cross-linking with BMOE (0.58 mM, 6 min on ice) of purified scSmc2/4 hinge, 1.4 µM in CB buffer (50 mM NaCl, 1 mM MgCl2, 50 mM HEPES pH 7.5, 1 mM TCEP, 5 % glycerol); SDS-PAGE; details: both partners purified
T1 construct: Smc4, S. cerevisiae condensin, residues 598-923; also called scSmc4 hinge; source: Sf9, co-purified with scSmc2 hinge (Strep-Tactin XT, cation exchange, SEC)
T1 sequence (looked up): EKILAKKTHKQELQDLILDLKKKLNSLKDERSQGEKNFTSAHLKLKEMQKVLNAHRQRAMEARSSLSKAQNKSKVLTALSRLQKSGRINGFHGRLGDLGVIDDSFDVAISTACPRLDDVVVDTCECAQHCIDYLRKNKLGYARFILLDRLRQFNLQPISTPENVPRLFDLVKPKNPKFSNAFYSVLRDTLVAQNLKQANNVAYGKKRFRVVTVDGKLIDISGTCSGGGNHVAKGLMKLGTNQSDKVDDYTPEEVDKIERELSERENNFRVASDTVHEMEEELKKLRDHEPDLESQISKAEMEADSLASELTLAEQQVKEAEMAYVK

B1: bsuSmc(400-776; C437S, R558C, N634C) hinge/coiled coil (domain or fragment, B. subtilis, UniProt P51834 400-776, looked up)
chain: QLLDDQMSQSAVTLQRLADNNEKHLQERHDISARKAASETEFARIEQEIHSQVGAYRDMQTKYEQKKRQYEKNESALYQAYQYVQQARSKKDMLETMQGDFSGFYQGVKEVLKAKERLGGIRGAVLELISTEQKYETAIEIALGASAQHVVTDDEQSACKAIQYLKQNSFGRATFLPLSVIRDRQLQSRDAETAARHSSFLGVASELVTFDPAYRSVIQNLLGTVLITEDLKGACELAKLLGHRYRIVTLEGDVVNPGGSMTGGAVKKKNNSLLGRSRELEDVTKRLAEMEEKTALLEQEVKTLKHSIQDMEKKLADLRETGEGLRLKQQDVKGQLYELQVAEKNINTHLELYDQEKSALSESDEERKVRKRKLEEE
notes: Smc (chromosome partition protein Smc), Bacillus subtilis, residues 400-776; also called bsuSmc hinge; B. subtilis Smc hinge; source: E. coli BL21(DE3) Gold, purified (as the scSmc5/6 hinge constructs: HisTrap, SEC)
binding result [1]: binds

binding result [2]: binds
B2: scSmc2(443-740) condensin hinge/coiled coil with S560C and K639C (domain or fragment, S. cerevisiae, UniProt P38989 443-740, looked up)
chain: KDNELNVKHVKQCQETCDKLRARLVEYGFDPSRIKDLKQREDKLKSHYYQTCKNSEYLKRRVTNLEFNYTKPYPNFEASFVHGVVGQLFQIDNDNIRYATALQTCAGGRLFNVVVQDCQTATQLLERGRLRKRVTIIPLDKIYTRPISSQVLDLAKKIAPGKVELAINLIRFDESITKAMEFIFGNSLICEDPETACKITFHPKIRARSITLQGDVYDPEGTLSGGSRNTSESLLVDIQKYNQIQKQIETIQADLNHVTEELQTQYATSQKTKTIQSDLNLSLHKLDLAKRNLDANPS
notes: Smc2, S. cerevisiae condensin, residues 443-740; also called scSmc2 hinge; source: Sf9, co-purified with scSmc4 hinge (Strep-Tactin XT, cation exchange, SEC)
